From the supplement of paper PMC7877785 come the findings set out here.

The nature of this data set: self-splicing fitness, log relative to wild type (ln ratio); higher = more splicing; Tetrahymena group I intron in knt gene, E. coli kanamycin selection, DiMSum; sequences stand for … in CUCUCU…GGAGGGAAAAGUUAUCAGGCAUGCACCUGGUAGCUAGUCUUUAAACCAAUAGAUUGCAUCGGUUUAAAAGGCAAGACCGUCAAAUUGCGGGAAAGGGGUCAACAGCCGUUCAGUACCAAGUCUCAGGGGAAACUUUGAGAUGGCCUUGCAAAGGGUAUGGUAAUAAGCUGACGGACAUGGUCCUAACCACGCAGCCAAGUCCUAAGUCAACAGAUCUUCUGUUGAUAUGGAUGCAGUUCACAGACUAAAUGUCGGUCGGGGAAGAUGUAUUCUUCUCAUAAGAUAUAGUCGGACCUCUCCUUAAUGGGAGCUAGCGGAUGAAGUGAUGCAACACUGGAGCCGCUGGGAACUAAUUUGUAUGCGAAAGUAUAUUGAUUAGUUUUGGAGUACUCGUGGUCG
An outline of the steps:
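Pooled colonies went to amplicon sequencing on an Illumina HiSeq 2500 after six replicate transformations. The plates were LB agar with 100 μg/mL carbenicillin, 50 μM IPTG and 0.2% rhamnose, with or without 25 μg/mL kanamycin, incubated overnight at 37°C or 30°C. The E. coli BL21(DE3) library had all eight P1ex-region intron nucleotides randomised, the intron placed in the knt kanamycin-resistance gene on pET-22b(+). DiMSum fitness is the error-weighted combination of replicate fold changes, kanamycin against none, normalised to wild type.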

± gives the uncertainty stated by the source.

With GCCAAGCAAUAUUACGUUCA, the “self-splicing fitness (ln)” value is, setting by setting: (30 °C) -2.12 ± 0.11; (37 °C) -0.947 ± 0.12. The matching figures for GCCCAGCAAUAUUACGAAUG: -4.15 ± 0.24 and -2.26 ± 0.23. The matching figures for GCCCAGCAAUAUUACGAGCU: -3.47 ± 0.19 and -1.89 ± 0.15. The matching figures for GCCCAGCAAUAUUACGAUCC: -0.561 ± 0.13 and -0.336 ± 0.19. GCCCAGCAAUAUUACGAUUC: the “self-splicing fitness (ln)” value was -1.56 ± 0.074 (30 °C) and -0.274 ± 0.09 (37 °C). The matching figures for GCCCAGCAAUAUUACGCACA: -0.537 ± 0.092 and -0.518 ± 0.094.

Turning to GCCCAGCAAUAUUACGCAUA, the “self-splicing fitness (ln)” value is -1.61 ± 0.093 (30 °C) and -0.164 ± 0.088 (37 °C).

For the sequence GCCCAGCAAUAUUACGCGAU, the “self-splicing fitness (ln)” value was -2.76 ± 0.13 (30 °C) and 0.119 ± 0.1 (37 °C). Regarding GCCCAGCAAUAUUACGGACG, the “self-splicing fitness (ln)” value is, setting by setting: (30 °C) -0.702 ± 0.07; (37 °C) -0.133 ± 0.097. As for GCCCAGCAAUAUUACGGCUU, the “self-splicing fitness (ln)” value was -1.29 ± 0.071 (30 °C) and -0.757 ± 0.093 (37 °C).

For GCCCAGCAAUAUUACGGGGC, the “self-splicing fitness (ln)” value is -2.87 ± 0.15 (30 °C) and -2.73 ± 0.25 (37 °C). On the same counts, the results for GCCCAGCAAUAUUACGGUAU are -0.47 ± 0.055 and -0.0153 ± 0.068.

On to GCCCAGCAAUAUUACGGUGA, for which the “self-splicing fitness (ln)” value (30 °C) was -0.302 ± 0.045 and the “self-splicing fitness (ln)” value (37 °C) was 0.206 ± 0.056. The matching figures for GCCCAGCAAUAUUACGGUUC: -0.85 ± 0.043 and -0.0899 ± 0.059. Turning to GCCCAGCAAUAUUACGUAAA, the “self-splicing fitness (ln)” value was -0.596 ± 0.06 (30 °C) and -0.718 ± 0.097 (37 °C).

As for GCCCAGCAAUAUUACGUAUA, the “self-splicing fitness (ln)” value is -2.1 ± 0.11 (30 °C) and -1.33 ± 0.11 (37 °C). As to GCCCAGCAAUAUUACGUCCA, the “self-splicing fitness (ln)” value is -0.999 ± 0.09 (30 °C) and -1.18 ± 0.12 (37 °C). The matching figures for GCCCAGCAAUAUUACGUCUA: -1.37 ± 0.084 and -1.15 ± 0.093. On the same counts, the results for GCCCAGCAAUAUUACGUCUC are -1.3 ± 0.085 and -0.175 ± 0.086. The matching figures for GCCCAGCAAUAUUACGUGAA: -0.204 ± 0.053 and 0.177 ± 0.077. Consider GCCCAGCAAUAUUACGUGAU, for which the “self-splicing fitness (ln)” value by setting is: (30 °C) -0.455 ± 0.046; (37 °C) -0.00599 ± 0.065.

Turning to GCCCAGCAAUAUUACGUGUU, the “self-splicing fitness (ln)” value runs as follows: (30 °C) -0.583 ± 0.042; (37 °C) -0.217 ± 0.054. Consider GCCGAGCAAUAUUACGAAAU, for which the “self-splicing fitness (ln)” value by setting is: (30 °C) -3.1 ± 0.39; (37 °C) -1.62 ± 0.41.

As for GCCGAGCAAUAUUACGACCA, the “self-splicing fitness (ln)” value was -2.62 ± 0.3 (30 °C) and -2.31 ± 0.31 (37 °C).

As to GCCGAGCAAUAUUACGACCC, the “self-splicing fitness (ln)” value is, setting by setting: (30 °C) -2.25 ± 0.34; (37 °C) -0.208 ± 0.39. On the same counts, the results for GCCGAGCAAUAUUACGAGCA are -1.93 ± 0.11 and -0.944 ± 0.11.

Regarding GCCGAGCAAUAUUACGCAGC, the “self-splicing fitness (ln)” value (30 °C) was -3.12 ± 0.29 and the “self-splicing fitness (ln)” value (37 °C) was -2.22 ± 0.27. Regarding GCCGAGCAAUAUUACGCAGU, the “self-splicing fitness (ln)” value was -2.75 ± 0.33 (30 °C) and -2.25 ± 0.23 (37 °C).

Turning to GCCGAGCAAUAUUACGCCAA, for the setting “30 °C”, the “self-splicing fitness (ln)” value was -1.62 ± 0.43. GCCGAGCAAUAUUACGCCCG: the “self-splicing fitness (ln)” value (30 °C) was -2.68 ± 0.26. As to GCCGAGCAAUAUUACGCCCU, the “self-splicing fitness (ln)” value was -2.8 ± 0.25 (30 °C) and -0.0518 ± 0.2 (37 °C). The matching figures for GCCGAGCAAUAUUACGCGAC: -2.44 ± 0.21 and -2.26 ± 0.35. For GCCGAGCAAUAUUACGGGUA, the “self-splicing fitness (ln)” value (30 °C) was -1.36 ± 0.068 and the “self-splicing fitness (ln)” value (37 °C) was -0.505 ± 0.068. In the case of GCCGAGCAAUAUUACGUAGC, the “self-splicing fitness (ln)” value is -2.02 ± 0.12 (30 °C) and -1.84 ± 0.14 (37 °C). The matching figures for GCCGAGCAAUAUUACGUAUG: -3.36 ± 0.25 and -3.11 ± 0.38. Take GCCGAGCAAUAUUACGUGCU: the “self-splicing fitness (ln)” value (30 °C) is -3.92 ± 0.21 and the “self-splicing fitness (ln)” value (37 °C) was -2.08 ± 0.15. The matching figures for GCCGAGCAAUAUUACGUGGG: -4.56 ± 0.42 and -2.85 ± 0.27. In the case of GCCGAGCAAUAUUACGUUCC, the “self-splicing fitness (ln)” value by setting is: (30 °C) -1.3 ± 0.2; (37 °C) -0.589 ± 0.25. The matching figures for GCCGAGCAAUAUUACGUUCU: -1.23 ± 0.1 and -0.97 ± 0.1.

For the sequence GCCGAGCAAUAUUACGUUGC, the “self-splicing fitness (ln)” value was -3.96 ± 0.25 (30 °C) and -2.73 ± 0.22 (37 °C). On the same counts, the results for GCCGAGCAAUAUUACGUUUA are -2.56 ± 0.17 and 0.181 ± 0.12. The matching figures for GCCUAGCAAUAUUACGACAG: -3.52 ± 0.29 and -2.82 ± 0.28. Regarding GCCUAGCAAUAUUACGAGUG, the “self-splicing fitness (ln)” value is, setting by setting: (30 °C) -2.5 ± 0.11; (37 °C) -0.934 ± 0.099. GCCUAGCAAUAUUACGAUCA: the “self-splicing fitness (ln)” value was -2.27 ± 0.27 (30 °C) and -2.22 ± 0.18 (37 °C). Consider GCCUAGCAAUAUUACGAUCG, for which the “self-splicing fitness (ln)” value is, setting by setting: (30 °C) -2.05 ± 0.15; (37 °C) -1.36 ± 0.18. On the same counts, the results for GCCUAGCAAUAUUACGAUUA are -3.39 ± 0.29 and -1.63 ± 0.18. On the same counts, the results for GCCUAGCAAUAUUACGCACU are -0.602 ± 0.083 and 0.143 ± 0.078.

Regarding GCCUAGCAAUAUUACGCAGC, the “self-splicing fitness (ln)” value is -4.41 ± 0.36 (30 °C) and -1.52 ± 0.19 (37 °C). With GCCUAGCAAUAUUACGCCCA, the “self-splicing fitness (ln)” value by setting is: (30 °C) -2.69 ± 0.25; (37 °C) -0.792 ± 0.2. The matching figures for GCCUAGCAAUAUUACGCGAA: -2.72 ± 0.18 and -1.64 ± 0.14. On the same counts, the results for GCCUAGCAAUAUUACGCGUG are -4.17 ± 0.42 and -0.758 ± 0.17. On the same counts, the results for GCCUAGCAAUAUUACGCGUU are -0.166 ± 0.068 and 0.243 ± 0.075. With GCCUAGCAAUAUUACGCUAG, the “self-splicing fitness (ln)” value (37 °C) is -2.47 ± 0.3. On to GCCUAGCAAUAUUACGCUCC, for which the “self-splicing fitness (ln)” value by setting is: (30 °C) -1.64 ± 0.28; (37 °C) 0.265 ± 0.2.

As to GCCUAGCAAUAUUACGGAAU, the “self-splicing fitness (ln)” value was -1.23 ± 0.074 (30 °C) and -0.307 ± 0.093 (37 °C). Take GCCUAGCAAUAUUACGGCCA: the “self-splicing fitness (ln)” value is -1.81 ± 0.33 (30 °C) and -1.52 ± 0.35 (37 °C). Turning to GCCUAGCAAUAUUACGUACG, the “self-splicing fitness (ln)” value is -2.67 ± 0.23 (30 °C) and -1.52 ± 0.24 (37 °C).

For GCCUAGCAAUAUUACGUGCU, the “self-splicing fitness (ln)” value (30 °C) was -2.06 ± 0.074 and the “self-splicing fitness (ln)” value (37 °C) is -1.17 ± 0.084.

In the case of GCCUAGCAAUAUUACGUGGU, the “self-splicing fitness (ln)” value is -3.71 ± 0.22 (30 °C) and -2.23 ± 0.25 (37 °C). On the same counts, the results for GCCUAGCAAUAUUACGUGUA are -1.55 ± 0.086 and -0.545 ± 0.088. GCCUAGCAAUAUUACGUGUU: the “self-splicing fitness (ln)” value runs as follows: (30 °C) -0.926 ± 0.042; (37 °C) 0.15 ± 0.055. On the same counts, the results for GCCUAGCAAUAUUACGUUUC are -2.03 ± 0.073 and -0.802 ± 0.079. On the same counts, the results for GCGAAGCAAUAUUACGAAUA are -2.34 ± 0.19 and -1.73 ± 0.24.

For the sequence GCGAAGCAAUAUUACGAGUA, the “self-splicing fitness (ln)” value is -2.13 ± 0.3 (30 °C) and -1.28 ± 0.19 (37 °C). Turning to GCGAAGCAAUAUUACGAUCU, the “self-splicing fitness (ln)” value reads like this: (30 °C) -1.09 ± 0.066; (37 °C) -0.73 ± 0.079. On the same counts, the results for GCGAAGCAAUAUUACGGCAC are 0.112 ± 0.13 and 0.387 ± 0.17. In the case of GCGAAGCAAUAUUACGGUUA, the “self-splicing fitness (ln)” value is 0.0459 ± 0.22 (30 °C) and -0.871 ± 0.19 (37 °C). On the same counts, the results for GCGAAGCAAUAUUACGUCGG are -2.61 ± 0.21 and -0.565 ± 0.25.

Regarding GCGAAGCAAUAUUACGUGCA, the “self-splicing fitness (ln)” value by setting is: (30 °C) -1.21 ± 0.13; (37 °C) -0.452 ± 0.097. On the same counts, the results for GCGAAGCAAUAUUACGUGGC are -3.33 ± 0.39 and -2.35 ± 0.44. Consider GCGAAGCAAUAUUACGUGUA, for which the “self-splicing fitness (ln)” value is -1.88 ± 0.093 (30 °C) and -1.09 ± 0.072 (37 °C). The matching figures for GCGAAGCAAUAUUACGUGUC: -4.67 ± 0.46 and -3.21 ± 0.33. As for GCGAAGCAAUAUUACGUUAC, the “self-splicing fitness (ln)” value (37 °C) is -2.72 ± 0.43.

As to GCGAAGCAAUAUUACGUUCC, the “self-splicing fitness (ln)” value reads like this: (30 °C) -2.43 ± 0.37; (37 °C) -2.29 ± 0.44. Consider GCGCAGCAAUAUUACGAAUA, for which the “self-splicing fitness (ln)” value was -2.09 ± 0.2 (30 °C) and -1.02 ± 0.14 (37 °C). On the same counts, the results for GCGCAGCAAUAUUACGACAG are -3.49 ± 0.17 and -3.05 ± 0.18.
